Test results published in US20060153851A1.
Where “and” joins values, the source holds several entries; their conditions need not be identical. Equal values may be shown once.

Target: each PDZ domain-containing protein (GST-DLG1, GST-NeDLG, and GST-PSD95 fusion proteins of FIG. 9B)
Experiment: 30 µM biotinylated peptide on plate-bound GST-PDZ fusions, streptavidin-HRP (FIG. 9B)

B1: biotinylated synthetic peptide corresponding to the C-terminal 20 amino acids of CLASP-2 (peptide)
peptide: VLHHHQNPEFYDEIKIELPTQLHEKHHLLLTFFHVSCDNSSKGSTKKRDVVETQVGYSWLPLLKDGRVVTSEQHIPVSANLPSGYLGYQELGMGRHYGPEIKWVDGGKPLLKISTHLVSTVYTQDQHLHNFFQYCQKTESGAQALGNELVKYLKSLHAMEGHVMIAFLPTILNQLFRVLTRATQEEVAVNVTRVIIHVVAQCHEEGLESHLRSYVKYAYKAEPYVASEYKTVHEELTKSMTTILKPSADFLTSNKLLRYSWFFFDVLIKSMAQHLIENSKVKLLRNQRFPASYHHAAETVVNMLMPHITQKFGDNPEASKNANHSLAVFIKRCFTFMDRGFVFKQINNYISCFAPGDPKTLFEYKFEFLRVVCNHEHYIPLNLPMPFGKGRIQRYQDLQLDYSLTDEFCRNHFLVGLLLREVGTALQEFREVRLIAISVLKNLLIKHSFDDRYASRSHQARIATLYLPLFGLLIENVQRINVRDVSPFPVNAGMTVKDESLALPAVNPLVTPQKGSTLDNSLHKDLLGAISGIASPYTTSTPNINSVRNADSRGSLISTDSGNSLPERNSEKSNSLDKHQQSSTLGNSVVRCDKLDQSEIKSLLMCFLYILKSMSDDALFTYWNKASTSELMDFFTISEVCLHQFQYMGKRYIARNQEGLGPIVHDRKSQTLPVSRNRTGMMHARLQQLGSLDNSLTFNHSYGHSDADVLHQSLLEANIATEVCLTALDTLSLFTLAFKNQLLADHGHNPLMKKVFDVYLCFLQKHQSETALKNVFTALRSLIYKFPSTFYEGRADMCAALCYEILKCCNSKLSSIRTEASQLLYFLMRNNFDYTGKKSFVRTHLQVIISVSQLIADVVGIGETRFQQSLSIINNCANSDRLIKHTSFSSDVKDLTKRIRTVLMATAQMKEHENDPEMLVDLQYSLAKSYASTPELRKTWLDSMARIHVKNGDLSEAAMCYVHVTALVAEYLTRKGVFRQGCTAFRVITPNIDEEASMMEDVGMQDVHFNEDVLMELLEQCADGLWKAERYELIADIYKLIIPIYEKRRDFFEDEDGKEYIYKEPKLTPLSEISQRLLKLYSDKFGSENVKMIQDSGKVNPKDLDSKYAYIQVTHVIPFFDEKELQERKTEFERSHNIRRFMFEMPFTQTGKRQGGVEEQCKRRTILTAIHCFPYVKKRIPVMYQHHTDLNPIEVAIDEMSKKVAELRQLCSSAEVDMIKLQLKLQGSVSVQVNAGPLAYARAFLDDTNTKRYPDNKVKLLKEVFRQFVEACGQALAVNERLIKEDQLEYQEEMKANYREMAKELSEIMHEQICPLEEKTSVLPNSLHIFNAISGTPTSTMVHGMTSSSSVV
modifications: biotin at the amino-terminus
OD units at 30 µM peptide: 0.4 OD units and 1 OD units
